The values that follow come from doi:10.1101/2019.12.17.878660 (bioRxiv, 2019).

This assay deals with T1, SurA (E. coli, UniProt P0ABZ6 21-428).
T1 sequence: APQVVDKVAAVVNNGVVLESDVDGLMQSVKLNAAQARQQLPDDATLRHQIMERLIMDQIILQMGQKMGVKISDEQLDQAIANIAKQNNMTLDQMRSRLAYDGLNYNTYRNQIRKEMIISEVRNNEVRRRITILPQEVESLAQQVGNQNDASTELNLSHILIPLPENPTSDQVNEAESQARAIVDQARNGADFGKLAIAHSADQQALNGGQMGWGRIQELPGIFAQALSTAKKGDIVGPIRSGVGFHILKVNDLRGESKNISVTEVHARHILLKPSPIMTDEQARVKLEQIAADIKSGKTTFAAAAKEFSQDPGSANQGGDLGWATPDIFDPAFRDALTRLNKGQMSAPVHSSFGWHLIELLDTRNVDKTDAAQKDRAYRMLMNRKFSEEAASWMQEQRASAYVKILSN
In words: cross-linking.

B1: uOmpX (natural protein, E. coli, UniProt P0A917 24-171, looked up)
chain: ATSTVTGGYAQSDAQGQMNKMGGFNLKYRYEEDNSPLGVIGSFTYTEKSRTASSGDYNKNQYYGITAGPAYRINDWASIYGVVGVGYGKFQTTEYPTYKHDTSDYGFSYGAGLQFNPMENVALDFSYEQSRIRSVDVGTWIAGVGYRF
As for B1, the binding result is on record as “binds”.
